T1: wild-type human p40 polypeptide (human, UniProt P29460 23-328)
T1 construct: Secreted from COS-7 or 293 cells co-transfected with a p35 nucleic acid; also called wt-p40
T1 sequence: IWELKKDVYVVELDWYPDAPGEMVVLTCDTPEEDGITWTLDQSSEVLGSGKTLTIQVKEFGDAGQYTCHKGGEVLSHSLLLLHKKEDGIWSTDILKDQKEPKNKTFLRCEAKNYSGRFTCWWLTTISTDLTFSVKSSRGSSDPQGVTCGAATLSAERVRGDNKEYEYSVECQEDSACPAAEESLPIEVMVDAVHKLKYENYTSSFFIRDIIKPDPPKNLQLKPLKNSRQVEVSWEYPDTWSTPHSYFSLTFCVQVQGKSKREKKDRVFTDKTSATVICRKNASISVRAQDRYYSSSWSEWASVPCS

T2: modified p35 polypeptide R2-571 with C-terminal EHtag
T2 construct: Recombinant (shuffled) p35 variant with the EHtag fused to its C-terminus; also called R2-571-EHtag
T2 chain: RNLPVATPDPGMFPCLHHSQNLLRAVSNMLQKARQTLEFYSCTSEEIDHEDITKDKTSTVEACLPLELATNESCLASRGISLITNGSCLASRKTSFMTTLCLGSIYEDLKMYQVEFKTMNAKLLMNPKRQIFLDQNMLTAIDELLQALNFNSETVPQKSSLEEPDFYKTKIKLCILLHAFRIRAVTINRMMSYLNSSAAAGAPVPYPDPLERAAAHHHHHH

B1: wild-type human p35 polypeptide (ligand)
chain: RNLPVATPDPGMFPCLHHSQNLLRAVSNMLQKARQTLEFYPCTSEEIDHEDITKDKTSTVEACLPLELTKNESCLNSRETSFITNGSCLASRKTSFMMALCLSSIYEDLKMYQVEFKTMNAKLLMDPKRQIFLDQNMLAVIDELMQALNFNSETVPQKSSLEEPDFYKTKIKLCILLHAFRIRAVTIDRVTSYLNAS
notes: Secreted from COS-7 or 293 cells co-transfected with a p40 nucleic acid; also called wt-p35
B2: modified p40 polypeptide B8-96 (ligand)
chain: IWELEKNVYVVELDWYPDAPGEMVVLACDTPEEDGITWTSDQSSEVLGTGKTLTIHVKEFGDAGQYTCRKGGAVLSQSLLLLHKKEDGIWSTDILKDQKEPKNKSFLKCEAKNYSGRFTCWWLTTISTDLKFSVKSSRGSSDPRGVTCGAALLSAEKVSLEHREYKKYRVECQEGSACPAAEESLPIEVVLEAVHKLKYENYTSSFFIRDIIKPDPPKNLQLRPLKNSRQVEVNWEYPDTWSTPHSYFSLTFCVQVQGKNKREKKLFMDQTSAKVTCHKDAKIRVQARDRYYSSSWSEWASVPCS
B3: modified p40 polypeptide A16-94 (ligand)
chain: IWELKKDVYVVELDWYPDAPGEMVVLACDTPEEDGITWTSDQSSEVLGTGKTLTIHVKEFGDAGQYTCHKGGTVLSQSLLLLHKKEDGIWSTDILKDQKEPKNKSFLKCEAKNYSGRFTCWWLTAISTDLKFTVKSSRGSTDPRGVTCGTATLSEDLGEYKKYRVECQEGSACPAAEESLPIEVVLEAVHKLKYENYTSSFFIRDIIKPDPPKNLQLRPLKNSRHVEVSWEYPDTWSAPHSYFSLTFGVQVQGRNKREDRLFMDQTSAKVVCHKDAKIRVQARDRYYSSSWSEWASVSLQSV
B4: modified p40 polypeptide B2-52 (ligand)
chain: IWELEKNVYVVELDWYPDAPGEMVVLACDTPEEDGITWTSDQSSGVLGTGKTLTIHVKEFGDAGQYTCRKGGAVLSQSLLLLHKKEDGIWSTDILKDQKEPKAKSFLKCEAKDYSGHFTCWWLTTISTDLKFSVKSSRGSSDPQGVTCGAVTLSAERVSMDHREYNKYTVECQEGSACPSAEESLPIEVVVDAIHKLKYENYTSSFFIRDIIKPDPPKNLQLRPLKNSRQVEVNWEYPDTWSTPHSYFSLTFCVQVQGKNKREKKLFMDQTSAKVTCHKDAKIRVQARDRYYSSSWSEWASVPCS
B5: modified p40 polypeptide A3-48 (ligand)
chain: IWELEKNVYVVELDWYPDAPGEMVVLACDTPEEDGITWTSDQSSEVLGTGKTLTIHVKEFGDAGQYTCHKGGKVLSRSLLLLHKKEDGIWSTDILKDQKEPKNKSFLKCEAKNYSGRFTCWWLTTISTDLTFSVKSSRGSTDPHGVTCGTATLSEDLGEYKKYRVECQEGSACPAAEESLPIEVVLEAVHKLKYENYTSSFFIRDIIKPDPPKNLQLRPLKNSRQVEVNWEYPDTWSTPHSYFSLTFCVQVQGRNKREKKLFMDQTSAKVTCHKDAKIRVQARDRYYSSSWSDWASVSCG
B6: wild-type human p35 polypeptide with C-terminal EHtag (ligand)
chain: RNLPVATPDPGMFPCLHHSQNLLRAVSNMLQKARQTLEFYPCTSEEIDHEDITKDKTSTVEACLPLELTKNESCLNSRETSFITNGSCLASRKTSFMMALCLSSIYEDLKMYQVEFKTMNAKLLMDPKRQIFLDQNMLAVIDELMQALNFNSETVPQKSSLEEPDFYKTKIKLCILLHAFRIRAVTIDRVTSYLNASAAAGAPVPYPDPLERAAAHHHHHH
notes: wt-p35 with the EHtag fused to its C-terminus; also called wt-p35-EHtag
B7: modified p40 polypeptide B1-81 (ligand)
chain: IWELEKNVYVVELDWYPDAPGETVVLACDTPEEDGITWTSDQSSEVLGTGKTLTIHVKEFGDAGQYTCRKGGAVLSQSLLLLHKKEDGIWSTDILKDQKKPKNKIFLKCEAKNYSGRFTCWWLTAISTDLKFTVKSSRGSSDPQGVTCGAVTLSAERVSMDHREYNKYTVECQEGSACPSAEESLPIEVVVDAIHKLKYENYTSRFFIRDIIKPDPPKNLQLRPLKNSRHVEISWEYPDTWSTPHSYFSLTFCVQVQGKNKREKKLFMDQTSAKVTCHKDAKIRVQARDRYHSSSWSEWASVPCS
B8: modified p40 polypeptide C2-22 (ligand)
chain: IWELKKDVYVVELDWYPNAPGETVVLTCDTPEEDGITWTSDQSSEVLGTGKTLTIHVKEFGDAGQYTCRKGGEALSRSLLLLHKKEDGIWSTDILKDQKEPKNKSFLKCEAKNYSGRFTCWWLTTISTDLKFSVKSSRGSTDPRGVTCGTATLSEDLGEYKKYRVECQEGSACPAAEESLPIEVVLEAVHKLKYENYTSSFFIRDIIKPDPPKNLQLKPLKNSRHVEVSWGYPDTWSTPHSYFSLTFCIQVQGKSKREKKDRIFTDKTSATVICRKNAKIRVQARDRYYSSFWSEWASVSCS
notes: Recombinant (shuffled) p40 variant; the mature region is stated as residues 23-324; also called p40C2-22

For assay [1], the target named is T1, wild-type human p40 polypeptide. Description: immunoblot with anti-p35 mAB of COS-7 culture medium; ~70 kDa p40/p35 heterodimer band, control (FIG. 7).
Assay [2] addresses B1. Description: immunoblot with anti-p35 mAB of COS-7 culture medium; ~70 kDa p40/p35 heterodimer band (FIG. 7). For orientation: In western blotting, separated proteins are transferred to a membrane and probed.
Assay [3] deals with T1, wild-type human p40 polypeptide. Description: Western blot with anti-E tag mAB of heterodimer purified on an anti-E affinity column through the p35 EHtag (FIG. 14). An excerpt:
(§1) Co-expressing in mammalian cells a modified p40 nucleic acid of the invention plus a modified p35 nucleic acid of the invention produces a substantially more homogenous heterodimeric protein than the heterodimeric protein produced by co-expressing a wt-p40 nucleic acid and a wt-p35 nucleic acid. […] Both the modified p35 nucleic acid and the wt-p35 nucleic acid also comprised a C-terminal EHtag coding sequence.

Assay [4] concerns the target T2, modified p35 polypeptide R2-571 with …. Described as above.
Source text: as §1

Consider B1, for which the binding result in assay [1] is “binds”.
In the case of B2, in assay [2], the binding result was “binds”.
With B3, the binding result in assay [2] is on record as “binds”.
Consider B4, for which the binding result in assay [2] is given as “binds”.
Regarding B5, the binding result in assay [2] is “binds”.
On to B6, for which the binding result in assay [3] is reported as “binds”.
Consider B7, for which, in assay [2], the binding result was “binds”.
With B8, the binding result in assay [2] and in assay [4] was “binds” throughout.
